Results on five substances are retold here after paper PMC4658703.

Holding throughout (experiment): SPR
Assay [1] concerns the target Human IGF2 (human).
Assay [2] addresses Echidna IGF2 (peak 2), purified recombinant (echidna).
The target of assay [3] is Human IGF2 (human). This is another data set of the same source.
The target of assay [4] is Echidna IGF2 (peak 2), purified recombinant (echidna). This is another data set of the same source.
Assay [5] has as its target Chicken IGF2 (chicken) (UniProt P33717).
The target in assay [6] is Echidna IGF2 (peak 2), purified recombinant (echidna). The source holds these as a separate data set.
Assay [7] addresses Chicken IGF2 (chicken) (UniProt P33717). The source holds these as a separate data set.
Assay [8] deals with Human IGF2 (human). This is another data set of the same source.

pKd: −log10 of the molar value. Read-outs that look alike come from different tables or passages of the source.

Chicken IGF2 (chicken), sequence (P33717 24-91): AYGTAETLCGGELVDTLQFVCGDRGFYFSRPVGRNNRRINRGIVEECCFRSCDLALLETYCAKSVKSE
Human IGF2R domain 11 (wild type), sequence (P11717 1508-1650): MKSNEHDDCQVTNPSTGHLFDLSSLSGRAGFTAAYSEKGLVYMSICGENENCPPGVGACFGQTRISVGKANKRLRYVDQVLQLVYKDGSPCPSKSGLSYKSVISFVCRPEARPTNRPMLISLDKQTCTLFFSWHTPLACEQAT

For “Chicken IGF2R domain 11 with echidna CD loop (domain or fragment)”, the pKd is 6.37 in the assay with Human IGF2 (human) [1], 6.48 in assay [2] and 6.49 with Human IGF2 (human) [3].

On to “Echidna IGF2R domain 11 (domain or fragment)”, for which the negative-log Kd (pKd) in assay [4] is 6.59; in the assay with Chicken IGF2 (chicken) [5], 6.61; in the assay with Human IGF2 (human) [1], 6.61; in assay [6], 6.41; with Chicken IGF2 (chicken) [7], 6.39; in the assay with Human IGF2 (human) [8] it was 6.48. In addition, the kd1 (two state model, first step) amounted to 0.138 s⁻¹ in assay [4], 0.259 s⁻¹ with Chicken IGF2 (chicken) [5] and 0.106 s⁻¹ with Human IGF2 (human) [1].

As to “Human IGF2R domain 11 (wild type) (from UniProt P11717 1508-1650) (domain or fragment)”, the negative-log Kd (pKd) is 7.28 in assay [4], 7.34 with Human IGF2 (human) [1], 7.11 in assay [6] and 7.19 with Human IGF2 (human) [8]. The kd1 (two state model, first step) in assay [4] amounted to 0.106 s⁻¹; in the assay with Human IGF2 (human) [1], 0.23 s⁻¹. This substance also gave a ka1 (two state model, first step) with Human IGF2 (human) [1] of 5e+06 m^-1 s^-1.

In the assay with Human IGF2 (human) [1], “Human IGF2R domain 11^(E1544K, K1545S, L1547V) (clone E4) (from UniProt P11717 1508-1650) (domain or fragment)” showed a pKd of 7.82; a ka1 (two state model, first step) of 2.76e+06 m^-1 s^-1; a kd1 (two state model, first step) of 0.044 s⁻¹. For the same substance, the pKd with Human IGF2 (human) [8] is 7.81.

As for “Opossum IGF2R domain 11 (domain or fragment)”, the pKd is 6.87 in assay [4]; 6.77 with Chicken IGF2 (chicken) [5]; 6.89 with Human IGF2 (human) [1]; 6.80 in assay [6]; 6.66 with Chicken IGF2 (chicken) [7]; 6.79 in the assay with Human IGF2 (human) [8]. The kd1 (two state model, first step) in assay [4] was determined as 0.106 s⁻¹; with Human IGF2 (human) [1], 0.108 s⁻¹. Further, in the assay with Chicken IGF2 (chicken) [5], the ka1 (two state model, first step) came to 1.76e+06 m^-1 s^-1.
